According to US20120208216A1:

Columns and labels:
[1] = target: antibody against the IL13 receptor α1 protein (anti-IL13Rα1 antibody); experiment: sandwich ELISA, Bi- and Dig-M-R10Z8E9 as capture and detection; analyte 1.56 ng/ml in cynomolgus serum
[2] = target: antibody against the amyloid β-A4 peptide (anti-Aβ antibody); experiment: as above
[3] = target: antibody against the IL-6 receptor (anti-IL6R antibody); experiment: as above
[4] = target: antibody against the IL-1R receptor (anti-IL1R antibody); experiment: as above
dog IgG (dog serum) [5] = experiment: SPR (BIAcore T100), mAb captured by anti-mouse Fc, serum 1:100; signal at 80 s
[6] = target: baboon IgG (baboon serum); experiment: as above
[7] = target: marmoset IgG (marmoset serum); experiment: as above
[8] = target: human immunoglobulin of class G (human serum); experiment: as above
[9] = target: chimpanzee immunoglobulin of class G (chimpanzee serum); experiment: as above
[10] = target: cynomolgus IgG (cynomolgus serum); experiment: as above
[11] = target: Rhesus-monkey IgG (Rhesus-monkey serum); experiment: as above
[12] = target: antibody against the IL13 receptor α1 protein (anti-IL13Rα1 antibody); experiment: sandwich ELISA, Bi- and Dig-M-R10Z8E9 as capture and detection; analyte 25.00 ng/ml in cynomolgus serum
[13] = target: antibody against the amyloid β-A4 peptide (anti-Aβ antibody); experiment: as above
[14] = target: antibody against the IL-6 receptor (anti-IL6R antibody); experiment: as above
[15] = target: antibody against the IL-1R receptor (anti-IL1R antibody); experiment: as above
[16] = target: antibody against the IL13 receptor α1 protein (anti-IL13Rα1 antibody); experiment: sandwich ELISA, Bi- and Dig-M-R10Z8E9 as capture and detection; 0.00 ng/ml analyte in cynomolgus serum (blank)
[17] = target: antibody against the amyloid β-A4 peptide (anti-Aβ antibody); experiment: as above
[18] = target: antibody against the IL-6 receptor (anti-IL6R antibody); experiment: as above
[19] = target: antibody against the IL-1R receptor (anti-IL1R antibody); experiment: as above
[20] = target: antibody against the IL13 receptor α1 protein (anti-IL13Rα1 antibody); experiment: sandwich ELISA, Bi- and Dig-M-R10Z8E9 as capture and detection; analyte 12.50 ng/ml in cynomolgus serum
[21] = target: antibody against the amyloid β-A4 peptide (anti-Aβ antibody); experiment: as above
[22] = target: antibody against the IL-6 receptor (anti-IL6R antibody); experiment: as above
[23] = target: antibody against the IL-1R receptor (anti-IL1R antibody); experiment: as above
dog IgG (dog serum) [24] = experiment: SPR (BIAcore T100), mAb captured by anti-mouse Fc, serum 1:100; 1:1 Langmuir, serum IgG assumed 15 mg/ml
[25] = target: marmoset IgG (marmoset serum); experiment: as above
[26] = target: human immunoglobulin of class G (human serum); experiment: as above
[27] = target: chimpanzee immunoglobulin of class G (chimpanzee serum); experiment: as above
[28] = target: antibody against the IL13 receptor α1 protein (anti-IL13Rα1 antibody); experiment: sandwich ELISA, Bi- and Dig-M-R10Z8E9 as capture and detection; analyte 50.00 ng/ml in cynomolgus serum
[29] = target: antibody against the amyloid β-A4 peptide (anti-Aβ antibody); experiment: as above
[30] = target: antibody against the IL-6 receptor (anti-IL6R antibody); experiment: as above
[31] = target: antibody against the IL-1R receptor (anti-IL1R antibody); experiment: as above
[32] = target: antibody against the IL13 receptor α1 protein (anti-IL13Rα1 antibody); experiment: sandwich ELISA, Bi- and Dig-M-R10Z8E9 as capture and detection; analyte 3.13 ng/ml in cynomolgus serum
[33] = target: antibody against the amyloid β-A4 peptide (anti-Aβ antibody); experiment: as above
[34] = target: antibody against the IL-6 receptor (anti-IL6R antibody); experiment: as above
[35] = target: antibody against the IL-1R receptor (anti-IL1R antibody); experiment: as above
[36] = target: antibody against the IL13 receptor α1 protein (anti-IL13Rα1 antibody); experiment: sandwich ELISA, Bi- and Dig-M-R10Z8E9 as capture and detection; analyte 6.25 ng/ml in cynomolgus serum
[37] = target: antibody against the amyloid β-A4 peptide (anti-Aβ antibody); experiment: as above
[38] = target: antibody against the IL-6 receptor (anti-IL6R antibody); experiment: as above
[39] = target: antibody against the IL-1R receptor (anti-IL1R antibody); experiment: as above
[40] = target: antibody against the IL13 receptor α1 protein (anti-IL13Rα1 antibody); experiment: sandwich ELISA, Bi- and Dig-M-R10Z8E9 as capture and detection; analyte 100.00 ng/ml in cynomolgus serum
[41] = target: antibody against the amyloid β-A4 peptide (anti-Aβ antibody); experiment: as above
[42] = target: antibody against the IL-6 receptor (anti-IL6R antibody); experiment: as above
[43] = target: antibody against the IL-1R receptor (anti-IL1R antibody); experiment: as above

OD [1]: 0.119 OD
OD [2]: 0.139 OD
OD [3]: 0.105 OD
OD [4]: 0.085 OD
Bound RU (dog IgG (dog serum) [5]): 35.5 RU
Bound RU [6]: -1.5 RU
Bound RU [7]: 18.9 RU
Bound RU [8]: 151 RU
Bound RU [9]: 159 RU
Bound RU [10]: -1.4 RU
Bound RU [11]: -1.9 RU
OD [12]: 1.23 OD
OD [13]: 1.31 OD
OD [14]: 1.08 OD
OD [15]: 0.98 OD
OD [16]: 0.022 OD
OD [17]: 0.023 OD
OD [18]: 0.024 OD
OD [19]: 0.024 OD
OD [20]: 0.772 OD
OD [21]: 0.881 OD
OD [22]: 0.664 OD
OD [23]: 0.546 OD
Kd (dog IgG (dog serum) [24]): 31.7 nM
Kd [25]: 204 nM
Kd [26]: 0.177 nM
Kd [27]: 0.221 nM
OD [28]: 1.67 OD
OD [29]: 1.71 OD
OD [30]: 1.56 OD
OD [31]: 1.52 OD
OD [32]: 0.226 OD
OD [33]: 0.264 OD
OD [34]: 0.19 OD
OD [35]: 0.153 OD
OD [36]: 0.408 OD
OD [37]: 0.482 OD
OD [38]: 0.348 OD
OD [39]: 0.276 OD
OD [40]: 1.97 OD
OD [41]: 1.93 OD
OD [42]: 1.82 OD
OD [43]: 1.88 OD
Substance: MAB<h-Fc gamma>M-R10Z8E9 (antibody)
